According to patent US20260176373A1 (BRIGHT BIOLOGICS, published 2026):

Experiments:
[1] = target: T1, human HER2-Domain II-his protein (human, UniProt P04626 196-319); assay: ELISA, plate coated with human HER2-Domain II-his
T1 construct: also called HER2 domain II fragment (Ser196-Asn319); not shown: his tag
Description: (§1) X axis is values of antibody concentration in nanomolar. Y axis is values of OD at 450 nm.
(§2) Binding of anti-HER2 VHH-Fc clones to different domains of human HER2 ECD was determined by ELISA binding assays using his-tagged HER2 domain fragments. Human HER2 domain IV fragment (Pro489-Cys630) was purchased from Sinobiological, domain II+III+IV fragment (Ser196-Cys630) & domain II fragment (Ser196-Asn319) were made.

[2] = target: T2, human HER2-Domain IV-his protein (human, UniProt P04626 489-630); assay: ELISA, plate coated with human HER2-Domain IV-his
T2 construct: also called HER2 domain IV fragment (Pro489-Cys630); not shown: his tag
Description: as §1, §2

[3] = target: T3, human HER2 (human epidermal growth factor receptor 2) (human, UniProt P04626 23-1255); assay: flow cytometry whole cell binding, CHO-h-HER2 stable cells
T3 construct: whole, on cells; also called ERBB2; h-HER2
Description: (§3) Binding of bivalent anti-HER2 VHH-Fc clones to human HER2 stably transfected CHO cells (CHO-h-HER2 stable cells) was determined by flow cytometry whole cell binding (WCB) assays. Briefly, antibodies were incubated at different concentrations with CHO-h-HER2 stable cells (0.2×10⁶/ml) in 100 μl/well in 96-well plates in FACS buffer (PBS with 1.0% FBS) for 30 min. After washing, Alexa Fluor 488 conjugated anti-human IgG Fc secondary antibody (Alexa Fluor® 488 AffiniPure Goat Anti-Human IgG, Fcγ fragment specific, Jackson labs, 1:750 dilution) was added, and incubated for 30 min. After washing, Median Fluorescence Intensity (MFI) was measured using CytoFlex (Beckman Coulter) by gating live cell population with FITC channel. Whole cell binding of VHH-Fc clones to endogenously expressed HER2 in human cancer cells was also determined using N87 (Stomach cancer cell line) and SKBR3 (Breast cancer cell line) cells, both of which are cancer cells with high HER2 expressions.

[4] = target: T3, human HER2 (human epidermal growth …); assay: cell-based or functional assay
[5] = target: T3, human HER2 (human epidermal growth …); assay: flow cytometry whole cell binding, N87 cells (endogenous HER2)
Description: as §3

[6] = target: T3, human HER2 (human epidermal growth …); assay: cell-based or functional assay; remark: listed apart in the source
[7] = target: T3, human HER2 (human epidermal growth …); assay: flow cytometry whole cell binding, CHO-h-HER2 stable cells; remark: listed apart in the source
[8] = target: T3, human HER2 (human epidermal growth …); assay: flow cytometry whole cell binding, SKBR3 cells
[9] = target: T3, human HER2 (human epidermal growth …); assay: cell-based or functional assay; remark: listed apart in the source
[10] = target: T3, human HER2 (human epidermal growth …); assay: flow cytometry whole cell binding, HCC202 cells
[11] = target: T4, human TROP2 (Trophoblast cell-surface antigen 2) (human, UniProt P09758 27-323); assay: flow cytometry whole cell binding, SKBR3
T4 chain: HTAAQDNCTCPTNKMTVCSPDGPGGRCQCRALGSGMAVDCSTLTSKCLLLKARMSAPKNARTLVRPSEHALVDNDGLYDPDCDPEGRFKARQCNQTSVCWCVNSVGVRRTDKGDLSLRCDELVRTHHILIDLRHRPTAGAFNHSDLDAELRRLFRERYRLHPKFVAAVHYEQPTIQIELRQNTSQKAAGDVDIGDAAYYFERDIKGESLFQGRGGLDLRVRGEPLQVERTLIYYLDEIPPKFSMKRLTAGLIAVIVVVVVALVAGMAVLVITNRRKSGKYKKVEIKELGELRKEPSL

[12] = target: T5, human TROP2 (Trophoblast cell-surface antigen 2) (human, UniProt P09758 27-323); assay: flow cytometry whole cell binding, h-TROP2 stably transfected CHO cells
T5 construct: whole, on cells; also called TACSTD2; h-TROP2
T5 sequence (looked up): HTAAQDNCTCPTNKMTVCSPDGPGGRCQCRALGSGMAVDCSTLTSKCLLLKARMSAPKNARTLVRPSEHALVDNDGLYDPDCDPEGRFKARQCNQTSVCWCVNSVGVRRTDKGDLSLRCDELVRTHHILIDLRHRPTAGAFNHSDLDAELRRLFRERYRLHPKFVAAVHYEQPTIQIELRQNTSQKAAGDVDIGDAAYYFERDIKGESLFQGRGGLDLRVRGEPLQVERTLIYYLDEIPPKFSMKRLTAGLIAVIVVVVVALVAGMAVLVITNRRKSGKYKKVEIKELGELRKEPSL
Description: Binding of bivalent anti-TROP2 VHH-Fc clones to human TROP2 in human TROP2 stably transfected CHO cells (CHO-h-TROP2 stable cells) were determined by flow cytometry whole cell binding (WCB) assays. Briefly, antibodies were incubated at different concentrations with CHO-h-TROP2 stable cells (0.2×10⁶/ml) in 96-well plates (100 μl/well) in FACS buffer for 30 min. After washing, Alexa Fluor 488 conjugated anti-human IgG Fc secondary antibody was added, and incubated for 30 min. After washing, MFI was measured using CytoFlex by gating live cell population with FITC channel. EC50 of binding was calculated using GraphPad Prism7.0.

mouse TROP2 = target: T6, mouse TROP2 (mouse, UniProt Q8BGV3 25-317); assay: flow cytometry whole cell binding, m-TROP2 stably transfected 293T cells
T6 construct: whole, on cells; also called m-TROP2
T6 sequence (looked up): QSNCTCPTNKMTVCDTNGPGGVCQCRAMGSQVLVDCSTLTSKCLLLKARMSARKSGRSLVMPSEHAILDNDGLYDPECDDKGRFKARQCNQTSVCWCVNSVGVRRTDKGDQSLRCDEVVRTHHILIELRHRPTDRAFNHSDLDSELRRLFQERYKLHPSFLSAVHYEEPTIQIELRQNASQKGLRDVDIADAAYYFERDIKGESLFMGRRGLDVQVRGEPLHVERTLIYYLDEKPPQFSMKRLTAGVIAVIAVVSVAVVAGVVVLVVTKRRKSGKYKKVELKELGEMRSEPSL

[13] = target: T5, human TROP2 (Trophoblast cell-surface …); assay: flow cytometry whole cell binding, SKBR3 cells
[14] = target: T5, human TROP2 (Trophoblast cell-surface …); assay: cell-based or functional assay
[15] = target: T5, human TROP2 (Trophoblast cell-surface …); assay: flow cytometry whole cell binding, NCI-H441 cells
[16] = target: T5, human TROP2 (Trophoblast cell-surface …); assay: flow cytometry whole cell binding, HCC202 cells

B1: anti-HER2 VHH-Fc clone 11D5 (bivalent VHH-Fc of Example 2) (antibody, V domains shown)
VH: QVQLVESGGGVVQPGRSLRLSCAASGSTFSSLAMHWVRQAPGKERELVAAISYSGGYTYYADSVKGRFTISRDNSKNTLYLQMNSLRAEDTAVYYCAASSIFIGAYDYWGQGTLVTVSS
notes: not shown: human IgG1 Fc region: hinge region and constant domains CH2 and CH3
binding result [1]: no binding
binding result [2]: no binding
EC50 [3]: 2.09 nM
IC50 (nM) in AU-565 cells, anti-proliferation [4]: 0.84 nM
EC50 [5]: 3.14 nM
IC50 (nM) in AU-565 cells, killing in the presence of PBMCs [6]: 0.38 nM
IC50 (nM) in SKBR3 cells, killing in the presence of PBMCs [6]: 0.29 nM

B2: 11D5_Fc (antibody, V domains shown)
VH: QVQLVESGGGVVQPGRSLRLSCAASGSTFSSLAMHWVRQAPGKERELVAAISYSGGYTYYADSVKGRFTISRDNSKNTLYLQMNSLRAEDTAVYYCAASSIFIGAYDYWGQGTLVTVSS
notes: monospecific bivalent VHH-Fc with C220S mutation in the hinge region; also called monospecific anti-HER2 (11D5)
EC50 [7]: 0.684 nM
EC50 [8]: 2.59 nM
IC50, nM, Killing of HCC202 cells by 2nd Ab-MMAE [9]: 0.18 nM
IC50, nM, Killing of SKBR3 cells by 2nd Ab-MMAE [9]: 0.134 nM
EC50 [10]: 3.25 nM

B3: anti-TROP2 VHH-Fc clone Alpaca 3H9 (antibody, human IgG1, V domains shown)
VH: LVQLVESGGGLVQAGGSQRLSCAVSGRAFAYYAMGWFRQAPGKEREFVAAIAGSGDSTYYADSVKGRFTISRDYAKNTNYLQMNSLKPEDTAVYYCAAAGGTFYSGTAVATRSSQYDYWGQGTQVTVSS
notes: domain: hinge region and constant domains (CH2 and CH3); bivalent VHH-Fc, human IgG1 Fc; also called 3H9-Fc
EC50 [11]: 1.76 nM
EC50 [12]: 1.46 nM
EC50 (mouse TROP2): 760 nM

B4: 1H11-hv8_Fc (antibody, V domains shown)
VH: EVQLVESGGGLVQPGGSLRLSCAASGGTFSRYIMGWFRQAPGKEREFVSTISGSGGSTYYADSVKGRFTISRDNSKNTLYLQMNSLRAEDTAVYYCASTFYSTTYVAQRDARDYAYWGQGTQVTVSS
notes: monospecific bivalent VHH-Fc with C220S mutation in the hinge region; also called monospecific anti-TROP2 (1H11-hv8)
EC50 [13]: 141 nM
IC50, nM, Killing of HCC202 cells by 2nd Ab-MMAE [14]: 0.2 nM
IC50, nM, Killing of NCI-H441 cells by 2nd Ab-MMAE [14]: 0.15 nM
IC50, nM, Killing of SKBR3 cells by 2nd Ab-MMAE [14]: 0.48 nM
EC50 [15]: 1.6 nM
EC50 [16]: 3.5 nM
